Residue numbers refer to the chain shown, from its start. Entries after “also recorded” stand apart in the source; their conditions may differ.
How the values were obtained:
[1] = test system: E. coli; test: E. coli growth in the presence of PNAs; assay type: cell-based
[2] = test system: E. coli; test: E. coli biofilm formation in the presence of PNAs; assay type: cell-based; settings: 20 μM of PNAs
Procedure: The inventors used peptide nucleic acids (PNAs) that hybridize to the CsgD mRNA sequence ranging from nucleic acid at position 128 to nucleic acid at position 151 in SEQ ID NO: 9. In the presence of 20 μM of PNAs corresponding to RydC 1-2tot sequence (SEQ ID NO: 10), E. coli biofilm formation was reduced about 50%.

[3] = test system: csgD mRNA; test: In vitro translation assays (PURESYSTEM); assay type: biochemical, Escherichia coli; settings: csgD mRNA503; for effect of adding Hfq on the translation regulation by the RydC mutant: 2-fold molar excess of Hfq
Procedure: In vitro translation of CsgD mRNA503 (2.5 pmols) using [^35S]-methionine was carried out with a PURESYSTEM (Cosmo Bio) following the manufacturer's instructions and as described previously (13). After RNA denaturation for 2 min at 85° C., chilling 2 min on ice, then renaturation for 5 min at 37° C. in TMN 1× buffer, a pre-complex between RydC and 10 pmol of Hfq was performed during 10 minutes at 37° C. To form the complex with the csgD mRNA, we again incubated for 10 min at 37° C. then translation assays were initiated by adding [^35S]-methionine and the PURESYSTEM classic II. Each reaction was denatured in a 1× Laemmli buffer at 95° C. for 5 min, loaded onto a 16% Tris-glycine gel, and visualized on a PhosphorImager.

[4] = test system: csgD mRNA; test: Native gel retardation assays; assay type: binding, Escherichia coli
Description: To generate the various csgD mRNA fragments as well as the sRNA's RydC, DNA templates containing a T7 promoter sequence were generated by PCR using the appropriate primers (Table S2) followed by in vitro transcription using a MEGAscript kit (Ambion) per the manufacturer's protocol. Transcription products were then electrophoresed onto a 6% PAGE containing 8M urea, excised from the gel, then […]. When necessary, purified RNA was dephosphorylated using CIP (New England Biolabs), 5′end-labelled with ATP γ-^32P (PerkinElmer) and T4 polynucleotide kinase (NE Biolabs), then treated with gel purification, passive elution, and ethanol precipitation.
(§1) After denaturation followed by renaturation at room temperature, annealing mixes containing 0.2 pmol csgD mRNA and 1 pmol of labelled primer were incubated for 15 min with or without various concentrations of RydC or Hfq. fMet-tRNA^fMet was then added for 5 min. Reverse transcription was started by adding 2 μL of AMV RT (NE Biolabs) and dNTPs for 15 min, then stopped by adding 10 μL of Buffer II (Ambion). The cDNAs and sequencing reactions were run on polyacrylamide gels, and signals detected using a PhosphorImager. Gel retardation assays are performed as previously described (4). 0.5 pmol of labelled RydC were incubated for 10 min at 37° C. with various concentrations (0-500 pmols) of unlabelled csgD mRNA215, csgD mRNAΔ5′UTR, or csgD mRNA100 in 1×TMN buffer (20 mM Tris-acetate pH 7.6, 100 mM sodium acetate, and 5 mM magnesium acetate). Samples were loaded onto a native 5% acrylamide gel and separated with 0.5×TBE at 4° C. Gels are dried and visualized (PhosphorImager).

[5] = test system: csgD mRNA215; test: Ribosome toeprint assays; assay type: biochemical, Escherichia coli; settings: RydC without Hfq (elevated amounts); Hfq without RydC (low amounts)
Procedure: as §1

[6] = target: Hfq (Escherichia coli, UniProt P0A6X3 P0A6X3:2-102); test: EMSA; Hfq binds csgD mRNA215 in absence of RydC; no Kd given; settings: tags: His tag implied by Ni2+ column purification, expressed from pTE607 in BL21(DE3); chain copies: 6; nine helices H1-H9
Hfq, sequence (P0A6X3 2-102, one chain of several): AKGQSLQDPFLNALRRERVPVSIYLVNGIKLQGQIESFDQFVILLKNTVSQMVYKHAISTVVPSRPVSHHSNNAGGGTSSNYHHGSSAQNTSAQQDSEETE

[7] = test system: csgD mRNA; test: Northern blot of csgD mRNA during curli formation; assay type: cell-based, Escherichia coli; settings: induced RydC expression; throughout curli synthesis
[8] = test system: CsgB protein; test: Western blot with anti-CsgB antibodies during curli formation; assay type: cell-based, Escherichia coli; settings: promoted RydC expression; after 48 h
Description: (§2) Membranes were blocked in TBS containing 5% milk.

[9] = test system: CsgD protein; test: Western blot with anti-CsgD antibodies during curli formation; assay type: cell-based, Escherichia coli; settings: induction of RydC expression; all times during curli synthesis
Description: as §2

[10] = test system: Salmonella enterica (bongori); test: Microtiter dish biofilm assay (crystal violet), RydC expression from pUC18-rydC; assay type: cell-based; settings: increased RydC expression (pUC18-rydC) vs isogenic strain; 48 hours incubation at 28° C.
[11] = test system: Salmonella enterica (bongori); test: Curli formation on Congo red plates; assay type: cell-based; settings: stimulated RydC expression, 48 hours at 28° C.
[12] = test system: csgBA and csgA mRNA; test: Northern blot of csgA and csgBA mRNAs during curli formation; assay type: cell-based, Escherichia coli; settings: high levels of RydC; after 10 h incubation
[13] = test system: CsgA protein; settings: stimulated RydC expression; YESCA plates, 0-48 hours
Procedure: E. coli K-12 MG1655Z1, S. sonnei and S. enterica strains and their derivatives were used (Table S1). RydC gene disruption and overexpression in E. coli cells were done as previously described (4). The biofilm assays were performed in 96-well polystyrene plates, as previously described (18). E. coli, S. enterica, and S. sonnei cells were grown aerobically under static conditions at 28° C. in half-diluted M9 media supplemented with a 0.4% glucose carbon source. After 48 h growth, planktonic cells were discarded and kept for growth evaluation at OD600 nm. Each well was washed twice with PBS and put into a ‘swimming pool’, pooled with the initial supernatant. Biofilm was developed in plates then dyed with crystal violet for 15 min at room temperature. The biofilm was recovered through application of an 80% absolute ethanol and 20% acetone solution and by pipetting up and down. After 2 further washes in ‘ethanol/acetone’, the number of surface-attached bacteria was estimated from the optical density at 590 nm and divided by the evaluation of growth at 600 nm. Curli expression was monitored for 48 h at 28° C. on Congo red plates (1% Casamino acids, 0.1% yeast extract, 20 μg ml^−1 Congo red and 10 μg ml^−1 Coomassie Brilliant Blue G). […]

[14] = test system: Escherichia coli; test: Curli formation on Congo red plates; assay type: cell-based; settings: stimulated RydC expression, 48 hours at 28° C.
[15] = test system: Escherichia coli; test: Microtiter dish biofilm assay (crystal violet), RydC expression from pUC18-rydC; assay type: cell-based; settings: increased RydC expression (pUC18-rydC) vs isogenic strain; 48 hours incubation at 28° C.

AACATGATGAAACCCCGC (all peptide nucleic acid (PNA)) [RydC 1-2tot]
effect on bacterial growth [1]: reducing E. coli growth
reduction of E. coli biofilm formation [2]: about 50%

Hfq: purified E. coli Hfq RNA-binding protein (RNA chaperone)
CsgD translation remaining (down to) ([3]; relative to translation without RydC and Hfq): 40%
interaction of Hfq with csgD mRNA215 ([4]; absence of RydC): interacts
ribosome loading / translation initiation on csgD mRNA215 (toeprint) [5]: prevent csgD mRNA translation initiation

B1: Escherichia coli RydC H2 (nucleic acid)
chain: CUUCCGAUGUACUGGGCAAUUCUUCGCCUGUACCACGGGUCGGUUUUAGUACAGGCGUUUUCUU
modifications: chemistry not given here
effect of adding Hfq on the translation regulation by the RydC mutant [3]: not beneficial

B2: Escherichia coli RydC H1 (nucleic acid)
chain: CUUCCGAUGUAGACCCGUAUUCUUCGCCUGUACCUGCCCAGGGUUUUAGUACAGGCGUUUUCUU
modifications: chemistry not given here
effect on CsgD translation ([3]; absence of Hfq): increased efficacy and translation blockage

B3: Escherichia coli RydC H3 (nucleic acid)
chain: B1 chain with A35U, C36G, G37C, G38C, G39C, U40A, C41G
modifications: chemistry not given here
activity for reducing CsgD translation relative to RydCH1 [3]: ten-fold
activity in reducing csgD mRNA translation relative to RydC [3]: only half as active as RydC
effect of adding Hfq on the translation regulation by the RydC mutant [3]: no effect

B4: csgD mRNA215 (ssRNA)
RNA: GAUGUAAUCCAUUAGUUUUAUAUUUUACCCAUUUAGGGCUGAUUUAUUACUACACACAGCAGUGCAACAUCUGUCAGUACUUCUGGUGCUUCUAUUUUAGAGGCAGCUGUCAGGUGUGCGAUCAAUAAAAAAAGCGGGGUUUCAUCAUGUUUAAUGAAGUCCAUAGUAUUCAUGGUCAUACAUUAUUGUUGAUCACUAAAUCUUCUUUGCAGGCG
binding result [6]: binds

B5: Escherichia coli RydC small RNA (nucleic acid, listed as Escherichia coli)
chain: CUUCCGAUGUAGACCCGUAUUCUUCGCCUGUACCACGGGUCGGUUUUAGUACAGGCGUUUUCU
modifications: expressed or natural sequence
notes: trans-encoded 64 nt sRNA of enteric bacteria folding as a pseudoknot; expressed from pUC18-rydC or transcribed in vitro
csgD mRNA steady state levels compared to isogenic strain [7]: half
reduction of CsgD translation ([3]; without Hfq): 20%
reduction of CsgB nucleator protein compared to isogenic strain [8]: about two-fold
reduction of CsgD protein compared to isogenic strain [9]: up to five-fold
reduction of biofilm formation [10]: one-half
complex formation with csgD mRNA100 ([4]; 31 nts of 5′UTR including TIS plus 69 nts coding sequence): duplex was detected; also recorded: lower than that with mRNA215
ternary complex formation RydC-Hfq-csgD mRNA215 ([4]; Hfq 1:1 molar ratio to RydC, one-to-one molar ratio with csgD mRNA215): nearly all of the RydC is in the complex
molar excess of csgD mRNA215 versus RydC needed for about half of RydC in complex ([4]; absence of Hfq): 1000 -fold molar excess
complex formation with csgD mRNA115 ([4]; first 115 nts of the csgD mRNA 5′-end, up to 250-fold excess): unable to interact; also recorded: did not interact
complex formation with csgD mRNAΔ5′UTR ([4]; mRNA lacking the 5′-UTR, starting at G+3): does not interact
complex formation with csgD mRNA215 ([4]; no Hfq): duplex was detected
curli formation [11]: lowered curli formation
decrease of steady state levels of csgBA and csgA mRNA transcripts [12]: half
reduction of the quantity of CsgA structural protein compared to wt [13]: up to 2.5 times
ribosome loading / translation initiation on csgD mRNA215 (toeprint) [5]: reduced ribosome loading onto the csgD mRNA in a concentration-dependent manner
curli formation [14]: lowered curli formation
reduction of biofilm formation [15]: about one-third

Source: US9765332B2, “Oligonucleotides and methods for inhibiting or reducing bacterial biofilms” (INSERM (INSTITUT NATIONAL DE LA SANTE ET DE LA RECHERCHE …)
